Test results: paper PMC7720491

Columns and labels:
[1] = target: recombinant F. hepatica cathepsin L1 (FhCL1), activated mature enzyme (Fasciola hepatica)
[2] = target: recombinant F. hepatica cathepsin L2 (FhCL2), activated mature enzyme (Fasciola hepatica)
[3] = target: recombinant F. hepatica cathepsin L3 (FhCL3), activated mature enzyme (Fasciola hepatica)
[4] = target: human cathepsin K (HsCK) (human) (UniProt P43235); assay: enzyme inhibition kinetics (Ki, Morrison equation)
[5] = target: human cathepsin L (HsCL) (human); assay: enzyme inhibition kinetics (Ki, Morrison equation)
[6] = target: recombinant F. hepatica cathepsin L1 (FhCL1), activated mature enzyme (Fasciola hepatica); assay: enzyme inhibition kinetics (Ki, Morrison equation)
[7] = target: recombinant F. hepatica cathepsin L2 (FhCL2), activated mature enzyme (Fasciola hepatica); assay: enzyme inhibition kinetics (Ki, Morrison equation)
[8] = target: recombinant F. hepatica cathepsin L3 (FhCL3), activated mature enzyme (Fasciola hepatica); assay: enzyme inhibition kinetics (Ki, Morrison equation)
[9] = target: recombinant F. hepatica cathepsin L1 (FhCL1), activated mature enzyme (Fasciola hepatica); remark: listed apart in the source
[10] = target: recombinant F. hepatica cathepsin L3 (FhCL3), activated mature enzyme (Fasciola hepatica); remark: listed apart in the source

human cathepsin K (HsCK) (human), sequence (P43235 115-329): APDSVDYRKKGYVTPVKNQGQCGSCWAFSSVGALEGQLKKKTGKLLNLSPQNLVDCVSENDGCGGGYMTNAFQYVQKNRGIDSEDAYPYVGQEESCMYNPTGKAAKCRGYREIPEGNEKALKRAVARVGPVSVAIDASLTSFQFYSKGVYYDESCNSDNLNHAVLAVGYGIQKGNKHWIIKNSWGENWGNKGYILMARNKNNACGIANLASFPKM

Substance	percent inhibition of recombinant peptidase activity by 10 nM propeptide, pH 7.0 [1] [%]	percent inhibition of recombinant peptidase activity by 10 nM propeptide, pH 7.0 [2] [%]	percent inhibition of recombinant peptidase activity by 10 nM propeptide, pH 7.0 [3] [%]	Ki [4] [nM]	Ki [5] [nM]	Ki [6] [nM]	Ki [7] [nM]	Ki [8] [nM]	percent reduction of peptidase activity by 500 nM 33-mer peptide, pH 7.0 [9] [%]	percent reduction of peptidase activity by 500 nM 33-mer peptide, pH 7.0 [10] [%]
ppFhCL3_Glu^68/Arg^68 (domain or fragment)	95	< 20	< 20	1.4	6.04	0.3	0.02	0.002		
ppFhCL3_Leu^66/Gly^66 (domain or fragment)	90			> 10000	> 10000	0.05	> 10000	8		
33-mer synthetic peptide derived from the FhCL3 propeptide (p45 to p77)									30	50
ppFhCL3_Tyr^46Lys^47/Ala^46Ala^47 (domain or fragment)	85			> 10000	> 10000	1.26	> 10000	> 10000		
recombinant FhCL3 propeptide (ppFhCL3), wild type (from UniProt A0A879R2T5 1-326) (domain or fragment)	98	97	100	2	26.6	0.04	0.004	< 0.002		
